Data reported in the supplement of paper PMC12783771.
± gives the standard deviation of the averaged measurements.

B1: library; a variant is named by its letters at X, in order (parent)
chain: MNIQIGELAKRTACPVVTIRFYEQEGLLPPPGRSRGNFRLYGEEHVERLQFIRHCRSLDMPLSXVRTLLSYRKRPDQDCGEVXMLLDEHIRQVESRIGALLELXHHXVELREACSGARPAQSCGILQXLSXCVCXTRGTTAHXSD

What was measured:
[1] = variants of: B1; experiment: sfGFP reporter fluorescence (15 h) (µM FITC); higher = higher leak; details: library round: Round 3; ligand: none
Procedure: (§1)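 Cell-free biosensing: 1 µL Echo-assembled CFE reactions with linear PbrR variant templates (5 nM) and pPbrR-sfGFP reporter, with 1 µM Pb, 30 µM Zn or no ligand; endpoint sfGFP fluorescence after 15 h at 30 °C calibrated as µM FITC. Round 3 ML-predicted PbrR mutants; up to 3 biological replicates.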

[2] = variants of: B1; experiment: sfGFP reporter fluorescence (15 h) (µM FITC); higher = stronger transcriptional activation; details: library round: Round 3
Procedure: as §1

Variant | sfGFP reporter fluorescence [1] | sfGFP reporter fluorescence ([2]; ligand: 1 µM Pb) | sfGFP reporter fluorescence ([2]; ligand: 30 µM Zn)
MNIQIGELAKRTACPVVTIRFYEQEGLLPPPGRSRGNFRLYGEEHVERLQFIRHCRSLDMPLSDVRTLLSYRKRPDQDCGEVTMLLDEHIRQVESRIGALLELKHHCVELREACSGARPAQSCGILQGLSACVCATRGTTAHPSD [DTKCGAAP] | 0.264 ± 0.019 | 1.56 ± 0.061 | 2.21 ± 0.16
MNIQIGELAKRTACPVVTIRFYEQEGLLPPPGRSRGNFRLYGEEHVERLQFIRHCRSLDMPLSDVRTLLSYRKRPDQDCGEVTMLLDEHIRQVESRIGALLELKHHCVELREACSGARPAQSCGILQGLSACVCDTRGTTAHISD [DTKCGADI] | 0.227 ± 0.0097 | 1.54 ± 0.036 | 2.16 ± 0.09
MNIQIGELAKRTACPVVTIRFYEQEGLLPPPGRSRGNFRLYGEEHVERLQFIRHCRSLDMPLSDVRTLLSYRKRPDQDCGEVSMLLDEHIRQVESRIGALLELKHHLVELREACSGARPAQSCGILQGLSHCVCPTRGTTAHYSD [DSKLGHPY] | 0.0395 ± 0.00071 | 0.112 ± 0.007 | 0.234 ± 0.033
MNIQIGELAKRTACPVVTIRFYEQEGLLPPPGRSRGNFRLYGEEHVERLQFIRHCRSLDMPLSDVRTLLSYRKRPDQDCGEVTMLLDEHIRQVESRIGALLELKHHCVELREACSGARPAQSCGILQGLSCCVCDTRGTTAHASD [DTKCGCDA] | 0.126 ± 0.0021 | 1.6 ± 0.12 | 1.51 ± 0.051
MNIQIGELAKRTACPVVTIRFYEQEGLLPPPGRSRGNFRLYGEEHVERLQFIRHCRSLDMPLSDVRTLLSYRKRPDQDCGEVSMLLDEHIRQVESRIGALLELKHHLLELREACSGARPAQSCGILQGLSMCVCATRGTTAHPSD [DSKLGMAP V108L] | 0.043 | 0.0646 ± 0.004 | 0.354 ± 0.015
MNIQIGELAKRTACPVVTIRFYEQEGLLPPPGRSRGNFRLYGEEHVERLQFIRHCRSLDMPLSDVRTLLSYRKRPDQDCGEVSMLLDEHIRQVESRIGALLELKHHLLELREACSGARPAQSCGILQGLSSCVCPTRGTTAHPSD [DSKLGSPP V108L] | 0.0407 ± 0.0012 | 0.121 ± 0.0045 | 0.247 ± 0.0044
MNIQIGELAKRTACPVVTIRFYEQEGLLPPPGRSRGNFRLYGEEHVERLQFIRHCRSLDMPLSDVRTLLSYRKRPDQDCGEVSMLLDEHIRQVESRIGALLELKHHLVELREACSGARPAASCGILQGLSNCVCRTRGTTAHASD [DSKLGNRA Q121A] | 0.044 ± 0.0012 | 0.209 ± 0.008 | 0.945 ± 0.054
